T1: TPST2ΔC18 (38 kDa core domain of human tyrosylprotein sulfotransferase-2, Gly43–Leu359) (human, UniProt O60704 43-359)
T1 sequence (looked up): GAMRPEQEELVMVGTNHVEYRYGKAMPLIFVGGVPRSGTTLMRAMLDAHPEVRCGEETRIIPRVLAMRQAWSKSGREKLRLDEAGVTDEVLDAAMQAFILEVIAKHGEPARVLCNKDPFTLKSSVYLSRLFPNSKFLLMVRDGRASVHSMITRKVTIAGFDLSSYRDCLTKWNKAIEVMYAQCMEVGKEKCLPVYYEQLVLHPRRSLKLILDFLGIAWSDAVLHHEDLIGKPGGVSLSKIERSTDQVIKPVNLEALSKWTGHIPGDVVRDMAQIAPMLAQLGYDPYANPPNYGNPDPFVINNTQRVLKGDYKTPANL

B1: C4P5Y3 peptide (substrate peptide derived from human complement C4) (peptide)
peptide: EDFEDYEFD
B2: TPST2 (proposed catalytic domain of human tyrosylprotein sulfotransferase-2, Gly43-Ser377) (domain or fragment, UniProt O60704 43-377, looked up)
chain: GAMRPEQEELVMVGTNHVEYRYGKAMPLIFVGGVPRSGTTLMRAMLDAHPEVRCGEETRIIPRVLAMRQAWSKSGREKLRLDEAGVTDEVLDAAMQAFILEVIAKHGEPARVLCNKDPFTLKSSVYLSRLFPNSKFLLMVRDGRASVHSMITRKVTIAGFDLSSYRDCLTKWNKAIEVMYAQCMEVGKEKCLPVYYEQLVLHPRRSLKLILDFLGIAWSDAVLHHEDLIGKPGGVSLSKIERSTDQVIKPVNLEALSKWTGHIPGDVVRDMAQIAPMLAQLGYDPYANPPNYGNPDPFVINNTQRVLKGDYKTPANLKGYFQVNQNSTSSHLGSS

Legend:
[1] = target: T1, TPST2ΔC18 (38 kDa core domain of human …); experiment: crystal structure
[2] = target: the molecule itself; experiment: crystal structure

Row | Binder | binding result [1] | binding result [2]
1 | B1 | binds | –
2 | B2 | – | binds

Reference: article PMC3601584 (Nature communications, 2013)
